The text below walks through data of US20060057652A1 (UNIVERSITY OF MASSACHUSETTS, published 2006).

The target in assay [1] is T1, anaphase promoting complex subunit 1 (APC1) (Homo sapiens, UniProt Q9H1A4 1-1944).
T1 construct: Endogenous protein in lysates of H1299 (or PFF) cells, detected with a polyclonal anti-APC1 antibody or by MALDI-TOF; also called Cyclosome subunit 1; Protein TSG24
The assay is described as follows: anti-FLAG immunoprecipitation from H1299 cells, APC1 immunoblot. For orientation: In western blotting, separated proteins are transferred to a membrane and probed.

Assay [2] addresses T2, β-actin (UniProt P60709 2-375).
T2 construct: also called beta-actin
The experiment in a line: anti-FLAG affinity purification from Ad-Apwt-infected H1299 cells, SDS-PAGE, MALDI-TOF.

T1 sequence (Q9H1A4 whole entry, one chain of several): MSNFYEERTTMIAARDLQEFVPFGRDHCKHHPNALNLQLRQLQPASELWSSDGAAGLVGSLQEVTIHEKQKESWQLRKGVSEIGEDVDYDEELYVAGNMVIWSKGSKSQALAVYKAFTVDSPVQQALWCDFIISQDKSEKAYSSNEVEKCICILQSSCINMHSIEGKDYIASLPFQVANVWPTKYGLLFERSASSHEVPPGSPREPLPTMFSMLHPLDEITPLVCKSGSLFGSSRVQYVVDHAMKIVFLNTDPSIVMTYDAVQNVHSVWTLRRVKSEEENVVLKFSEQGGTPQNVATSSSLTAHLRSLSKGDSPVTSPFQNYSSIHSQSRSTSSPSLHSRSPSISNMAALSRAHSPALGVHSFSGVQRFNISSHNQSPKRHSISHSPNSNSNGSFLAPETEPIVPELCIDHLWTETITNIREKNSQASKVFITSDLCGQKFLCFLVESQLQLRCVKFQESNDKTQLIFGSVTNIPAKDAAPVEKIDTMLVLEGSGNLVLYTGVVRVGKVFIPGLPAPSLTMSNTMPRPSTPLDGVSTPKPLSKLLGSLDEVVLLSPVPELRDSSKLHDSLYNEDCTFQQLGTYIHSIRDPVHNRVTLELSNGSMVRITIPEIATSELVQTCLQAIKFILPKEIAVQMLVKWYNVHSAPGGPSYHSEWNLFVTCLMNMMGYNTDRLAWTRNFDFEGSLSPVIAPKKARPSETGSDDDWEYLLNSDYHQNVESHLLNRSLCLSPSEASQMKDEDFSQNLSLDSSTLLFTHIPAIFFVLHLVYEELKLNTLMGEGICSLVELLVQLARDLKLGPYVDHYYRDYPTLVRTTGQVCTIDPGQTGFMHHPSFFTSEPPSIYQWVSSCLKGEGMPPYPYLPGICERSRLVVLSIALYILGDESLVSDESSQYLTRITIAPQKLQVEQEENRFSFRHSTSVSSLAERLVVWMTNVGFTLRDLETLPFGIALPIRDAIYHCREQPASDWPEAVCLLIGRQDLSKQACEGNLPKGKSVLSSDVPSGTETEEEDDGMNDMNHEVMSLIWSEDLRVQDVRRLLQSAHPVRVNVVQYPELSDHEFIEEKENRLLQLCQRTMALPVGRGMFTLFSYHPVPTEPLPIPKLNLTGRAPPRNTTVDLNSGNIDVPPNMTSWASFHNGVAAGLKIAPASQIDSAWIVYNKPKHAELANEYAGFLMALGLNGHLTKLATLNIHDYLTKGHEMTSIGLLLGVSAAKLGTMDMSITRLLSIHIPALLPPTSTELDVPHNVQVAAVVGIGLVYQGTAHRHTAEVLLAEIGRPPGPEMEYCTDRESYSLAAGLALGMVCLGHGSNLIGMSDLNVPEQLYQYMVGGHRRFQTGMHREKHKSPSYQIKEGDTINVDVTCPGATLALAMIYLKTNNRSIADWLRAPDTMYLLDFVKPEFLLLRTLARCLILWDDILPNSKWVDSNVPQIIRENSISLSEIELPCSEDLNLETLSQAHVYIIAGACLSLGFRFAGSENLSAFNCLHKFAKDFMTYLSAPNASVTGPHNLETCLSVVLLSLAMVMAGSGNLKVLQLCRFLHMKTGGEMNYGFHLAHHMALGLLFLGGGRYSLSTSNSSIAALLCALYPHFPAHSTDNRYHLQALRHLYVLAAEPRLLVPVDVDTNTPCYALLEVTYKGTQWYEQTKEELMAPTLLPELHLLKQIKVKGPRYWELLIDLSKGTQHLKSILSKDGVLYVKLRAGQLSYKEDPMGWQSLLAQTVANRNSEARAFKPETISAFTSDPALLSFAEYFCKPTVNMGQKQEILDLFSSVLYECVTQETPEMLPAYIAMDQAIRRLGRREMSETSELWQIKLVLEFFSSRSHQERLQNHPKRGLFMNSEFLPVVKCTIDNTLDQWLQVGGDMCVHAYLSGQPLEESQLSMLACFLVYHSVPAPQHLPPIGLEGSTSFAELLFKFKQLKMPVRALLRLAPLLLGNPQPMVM

B1: triple FLAG-tagged Ap-SV40NLS (other)
chain: MNALQEDTPPGPSTVFRPPTSSRPLETPHCREIRIGIAGITITLSLCGCANARAPTLRSATADNSESTGFKNVPDLRTDQPKPPSKKRPKKKRKV
notes: The make-up (Apoptin 1-88 plus SV40 LT NLS) is described for the GFP construct; not shown: triple FLAG tag
As to B1, in assay [1], the binding result is “no binding”.

B2: FLAG-tagged wild type Apoptin expressed from adenovirus Ad-Apwt (other)
chain: MNALQEDTPPGPSTVFRPPTSSRPLETPHCREIRIGIAGITITLSLCGCANARAPTLRSATADNSESTGFKNVPDLRTDQPKPPSKKRSCDPSEYRVSELKESLITTTPSRPRTAKRRIRL
notes: Expressed in infected H1299 or PFF cells and pulled down from lysates on anti-FLAG beads; also called FLAG-Apoptin; FLAG-tagged Apoptin
B2: the binding result in assay [2] was “binds”.

B3: triple FLAG-tagged Ap-pmNLS2 (other)
chain: MNALQEDTPPGPSTVFRPPTSSRPLETPHCREIRIGIAGITITLSLCGCANARAPTLRSATADNSESTGFKNVPDLRTDQPKPPSKKRSCDPSEYRVSELKESLITTTPSRPRTAAAAIRL
notes: not shown: triple FLAG tag
B3: the binding result in assay [1] is “no binding”.
